Positions count from the first letter of the chain named. Names may count otherwise.
What was measured:
AUC = biological target: the molecule itself; experiment: AUC
[1] = biological target: the molecule itself; experiment: thioflavin T fluorescence

B1: emerin fragment from amino acid 1 to amino acid 187 (EmN), wild type, His-tagged (domain or fragment, human, UniProt P50402 1-187, looked up)
chain: MDNYADLSDTELTTLLRRYNIPHGPVVGSTRRLYEKKIFEYETQRRRLSPPSSSAASSYSFSDLNSTRGDADMYDLPKKEDALLYQSKGYNDDYYEESYFTTRTYGEPESAGPSRAVRQSVTSFPDADAFHHQVHDDDLLSSSEEECKDRERPMYGRDSAYQSITHYRPVSASRSSLDLSYYPTSSS
- stoichiometry N (AUC): 2

B2: EmN variant S54F (domain or fragment, human, UniProt P50402 1-187, looked up)
chain: B1 chain with S54F
- binding result [1]: binds

B3: EmN variant Q133H (domain or fragment, human, UniProt P50402 1-187, looked up)
chain: B1 chain with Q133H
- binding result [1]: binds

B4: emerin fragment from amino acid 1 to amino acid 187 (EmN), wild type, His-tag cleaved (domain or fragment, human, UniProt P50402 1-187, looked up)
chain: B1 chain
- fold increase in ThT fluorescence intensity at 480 nm [1]: 10 fold

B5: EmN variant P183H (domain or fragment, human, UniProt P50402 1-187, looked up)
chain: B1 chain with P183H
- binding result [1]: binds

B6: EmN variant P183T (domain or fragment, human, UniProt P50402 1-187, looked up)
chain: B1 chain with P183T
- binding result [1]: binds

Source: publication PMC4869717 (ACS chemical biology, 2015)
